# Assay results as given in PMC12155690.
# T1: human retinal guanylyl/guanylate cyclase 1 (RetGC1), wild type (human) (UniProt Q02846)
# T1 sequence: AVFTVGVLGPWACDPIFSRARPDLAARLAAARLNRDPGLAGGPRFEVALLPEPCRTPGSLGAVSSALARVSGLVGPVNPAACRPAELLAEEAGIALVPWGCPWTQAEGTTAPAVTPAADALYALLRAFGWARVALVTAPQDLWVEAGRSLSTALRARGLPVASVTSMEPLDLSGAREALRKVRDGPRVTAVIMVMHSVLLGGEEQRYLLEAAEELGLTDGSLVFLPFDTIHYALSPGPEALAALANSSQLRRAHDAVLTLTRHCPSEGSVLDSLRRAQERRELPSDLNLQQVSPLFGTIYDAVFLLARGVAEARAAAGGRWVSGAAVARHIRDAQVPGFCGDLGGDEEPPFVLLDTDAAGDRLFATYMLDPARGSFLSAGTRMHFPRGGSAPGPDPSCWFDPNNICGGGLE
# B1: Human GCAP1 (Ser6) (natural protein)
# chain: MGNVMSGKSVEELSSTECHQWYKKFMTECPSGQLTLYEFRQFFGLKNLSPSASQYVEQMFETFDFNKDGYIDFMEYVAALSLVLKGKVEQKLRWYFKLYDVDGNGCIDRDELLTIIQAIRAINPCSDTTMTAEEFTDTVFSKIDVNGDGELSLEEFIEGVQKDQMLLDTLTRSLDLTRIVRRLQNGEQDEEGADEAAEAAG
# Columns and labels:
# [1] = molecular target: T1, human retinal guanylyl/guanylate cyclase 1 (RetGC1), wild type (human)
# [2] = molecular target: human RetGC1 p.(Arg624Gln) (human) (UniProt Q02846)
# [3] = molecular target: human RetGC1 p.(Tyr555Ser) (human) (UniProt Q02846)
# [4] = molecular target: human RetGC1 p.(Leu587Val) (human) (UniProt Q02846)
binder,measurement,setting,value
B1,"[GCAP]1/2: GCAP1 concentration producing half-maximal stimulation of guanylyl cyclase activity (HEK293 membranes, 10 mM MgCl2, 2 mM EGTA)",[1],0.98 µM
same,"[GCAP]1/2: GCAP1 concentration producing half-maximal stimulation of guanylyl cyclase activity (HEK293 membranes, 10 mM MgCl2, 2 mM EGTA)",[2],4.1 µM
same,"[GCAP]1/2: GCAP1 concentration producing half-maximal stimulation of guanylyl cyclase activity (HEK293 membranes, 10 mM MgCl2, 2 mM EGTA)",[3],4.4 µM
same,"[GCAP]1/2: GCAP1 concentration producing half-maximal stimulation of guanylyl cyclase activity (HEK293 membranes, 10 mM MgCl2, 2 mM EGTA)",[4],2.4 µM
